Target: T1, recombinant full-length hCAP18/LL-37 (residues 31-170)
T1 chain: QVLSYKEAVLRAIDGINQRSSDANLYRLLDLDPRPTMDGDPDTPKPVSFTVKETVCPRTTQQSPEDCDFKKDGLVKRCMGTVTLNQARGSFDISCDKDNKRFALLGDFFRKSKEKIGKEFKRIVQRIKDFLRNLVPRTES

B1: human neutrophil elastase (Calbiochem) (protein)
chain: IVGGRRARPHAWPFMVSLQLRGGHFCGATLIAPNFVMSAAHCVANVNVRAVRVVLGAHNLSRREPTRQVFAVQRIFENGYDPVNLLNDIVILQLNGSATINANVQVAQLPAQGRRLGNGVQCLAMGWGLLGRNRGIASVLQELNVTVVTSLCRRSNVCTLVRGRQAGVCFGDSGSPLVCNGLIHGIASFVRGGCASGLYPDAFAPVAQFVNWIDSIIQ
  proteolytic processing of hCAP18/LL-37 (SDS-PAGE and immunoblot): Elastase treatment generated a band migrating at the same size as synthetic LL-37, and a band at 14 kDa

— US7173007
